US20230365640A1
Where “and” joins values, the source holds several entries; their conditions need not be identical. Identical values can stand only once.

Target: recombinant SARS-CoV-2 RBD (His-tagged SARS-CoV-2 RBD fusion protein) (SARS-CoV-2), P0DTC2
Settings: remark: other sources report otherwise

B1: DC-SIGN.Fc protein, Q9NNX6 59-404 (Fc fusion)
chain: QVSKVPSSISQEQSRQDAIYQNLTQLKAAVGELSEKSKLQEIYQELTQLKAAVGELPEKSKLQEIYQELTRLKAAVGELPEKSKLQEIYQELTWLKAAVGELPEKSKMQEIYQELTRLKAAVGELPEKSKQQEIYQELTRLKAAVGELPEKSKQQEIYQELTRLKAAVGELPEKSKQQEIYQELTQLKAAVERLCHPCPWEWTFFQGNCYFMSNSQRNWHDSITACKEVGAQLVVIKSAEEQNFLQLQSSRSNRFTWMGLSDLNQEGTWQWVDGSPLLPSFKQYWNRGEPNNVGEEDCAEFSGNGWNDDKCNLAKFWICKKSAASCSRDEEQFLSPAPATPNPPPA
Kd: 18.7 µM and 16.1 µM | koff: 0.000588 s⁻¹ and 0.000614 s⁻¹ | kon: 339 M⁻¹ s⁻¹
